According to the supplement of paper PMC7877785:
± gives the uncertainty stated by the source.

Assay: self-splicing fitness, log relative to wild type (ln ratio); higher = more splicing; Tetrahymena group I intron in knt gene, E. coli kanamycin selection, DiMSum; sequences stand for … in CUCUCU…GGAGGGAAAAGUUAUCAGGCAUGCACCUGGUAGCUAGUCUUUAAACCAAUAGAUUGCAUCGGUUUAAAAGGCAAGACCGUCAAAUUGCGGGAAAGGGGUCAACAGCCGUUCAGUACCAAGUCUCAGGGGAAACUUUGAGAUGGCCUUGCAAAGGGUAUGGUAAUAAGCUGACGGACAUGGUCCUAACCACGCAGCCAAGUCCUAAGUCAACAGAUCUUCUGUUGAUAUGGAUGCAGUUCACAGACUAAAUGUCGGUCGGGGAAGAUGUAUUCUUCUCAUAAGAUAUAGUCGGACCUCUCCUUAAUGGGAGCUAGCGGAUGAAGUGAUGCAACACUGGAGCCGCUGGGAACUAAUUUGUAUGCGAAAGUAUAUUGAUUAGUUUUGGAGUACUCGUGGUCG
Summary of the method: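 Pooled colonies went to amplicon sequencing on an Illumina HiSeq 2500 after six replicate transformations. The plates were LB agar with 100 μg/mL carbenicillin, 50 μM IPTG and 0.2% rhamnose, with or without 25 μg/mL kanamycin, incubated overnight at 37°C or 30°C. The E. coli BL21(DE3) library had all eight P1ex-region intron nucleotides randomised, the intron placed in the knt kanamycin-resistance gene on pET-22b(+). DiMSum fitness is the error-weighted combination of replicate fold changes, kanamycin against none, normalised to wild type.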

Sequence | self-splicing fitness (ln) (30 °C) | self-splicing fitness (ln) (37 °C)
CUGCAGCAAUAUUACGCGGA | -2.29 ± 0.21 | -2.21 ± 0.31
AGGCAGCAAUAUUACGAAUG | -1.83 ± 0.17 | -1.73 ± 0.2
CCGUAGCAAUAUUACGGGAU | -4.51 ± 0.29 | -2.53 ± 0.2
CUACAGCAAUAUUACGUGGU | -3.31 ± 0.22 | -3.03 ± 0.28
CGUGAGCAAUAUUACGGGCU | -1.5 ± 0.18 | -2.67 ± 0.39
CGCAAGCAAUAUUACGGAUC | -2 ± 0.19 | -2.21 ± 0.18
AUGAAGCAAUAUUACGUGAC | -2.85 ± 0.13 | -1.63 ± 0.15
GCAAAGCAAUAUUACGAAGU | -3.24 ± 0.16 | -1.22 ± 0.11
CAGAAGCAAUAUUACGCUUC | – | -3.54 ± 0.4
UUUUAGCAAUAUUACGCAGG | -1.33 ± 0.12 | -1.03 ± 0.16
UUGAAGCAAUAUUACGCCGA | 0.633 ± 0.2 | 0.737 ± 0.25
AGUCAGCAAUAUUACGCCGU | -1.26 ± 0.15 | -0.55 ± 0.21
AUUUAGCAAUAUUACGCUUC | -2.33 ± 0.5 | –
GCGAAGCAAUAUUACGCGUG | -1.54 ± 0.12 | -1.7 ± 0.13
UUGAAGCAAUAUUACGAAAA | -0.641 ± 0.12 | 0.066 ± 0.15
AGUCAGCAAUAUUACGAGAA | – | -1.35 ± 0.36
CCGGAGCAAUAUUACGACGA | -0.828 ± 0.23 | -1.07 ± 0.24
GCUUAGCAAUAUUACGUCAC | – | -1.53 ± 0.5
GCCGAGCAAUAUUACGUUAG | -3.58 ± 0.17 | -2.65 ± 0.19
CCAAAGCAAUAUUACGCACU | -2.09 ± 0.19 | -2.75 ± 0.23
CGAUAGCAAUAUUACGAUGG | -0.196 ± 0.12 | -0.185 ± 0.2
GAACAGCAAUAUUACGCCUA | -1.42 ± 0.086 | -0.336 ± 0.087
CAACAGCAAUAUUACGUACA | -2.28 ± 0.11 | -1.12 ± 0.093
AUGCAGCAAUAUUACGUCCC | -1.53 ± 0.42 | –
CGCCAGCAAUAUUACGCAUC | -3.71 ± 0.16 | -2.74 ± 0.17
UCGCAGCAAUAUUACGAUCU | -1.17 ± 0.21 | -2.57 ± 0.21
AAUUAGCAAUAUUACGGAGU | -2.69 ± 0.2 | -1.02 ± 0.17

Sequence | self-splicing fitness (ln) (30 °C) | self-splicing fitness (ln) (37 °C)
UAUUAGCAAUAUUACGAGCA | -0.606 ± 0.12 | -0.18 ± 0.17
UUUAAGCAAUAUUACGCCUA | -1.34 ± 0.21 | 0.351 ± 0.21
GGGGAGCAAUAUUACGGCGU | -1.31 ± 0.12 | -1.08 ± 0.15
GGACAGCAAUAUUACGUGUU | -3.42 ± 0.13 | -2.44 ± 0.2
CGUCAGCAAUAUUACGACCU | -0.193 ± 0.13 | 0.326 ± 0.15
UAUCAGCAAUAUUACGCCAU | -1.73 ± 0.27 | -1.55 ± 0.28
CCCGAGCAAUAUUACGGCCG | -4.1 ± 0.23 | -3.14 ± 0.32
UACUAGCAAUAUUACGCAGA | -3.67 ± 0.47 | -2.27 ± 0.22
GCGCAGCAAUAUUACGUGCA | -2.09 ± 0.096 | -0.706 ± 0.08
UUAGAGCAAUAUUACGUCUA | -0.712 ± 0.071 | -0.109 ± 0.11
ACCUAGCAAUAUUACGUAGC | -1.81 ± 0.12 | -0.966 ± 0.14
AAGGAGCAAUAUUACGGUGG | -3.21 ± 0.15 | -2.45 ± 0.27
UACCAGCAAUAUUACGACGA | -0.586 ± 0.086 | 0.837 ± 0.11
CUGUAGCAAUAUUACGUAUA | -3.03 ± 0.4 | -2.67 ± 0.28
AACUAGCAAUAUUACGUGGU | -3.36 ± 0.16 | -2.86 ± 0.23
UGGCAGCAAUAUUACGAUGC | -3.93 ± 0.28 | -2.65 ± 0.41
CUUGAGCAAUAUUACGUAGC | -3.2 ± 0.2 | -2.4 ± 0.29
GUCCAGCAAUAUUACGUUAU | -0.827 ± 0.058 | 0.329 ± 0.07
UCUAAGCAAUAUUACGCCAC | -2.44 ± 0.36 | -3.11 ± 0.35
GACAAGCAAUAUUACGAUAG | -2.76 ± 0.22 | -0.828 ± 0.12
CCGAAGCAAUAUUACGAAUG | -0.621 ± 0.059 | -0.208 ± 0.076
GGUGAGCAAUAUUACGGUGU | -3.9 ± 0.36 | -2.05 ± 0.31
UUCGAGCAAUAUUACGAAAG | -2.66 ± 0.36 | –
UAAGAGCAAUAUUACGUAGG | -3.24 ± 0.33 | -2.56 ± 0.3
GCCAAGCAAUAUUACGGCAC | -2.04 ± 0.12 | -0.268 ± 0.12
GCGUAGCAAUAUUACGUAAC | -3.58 ± 0.27 | -0.0467 ± 0.15
CAGCAGCAAUAUUACGGCCC | -0.505 ± 0.15 | -0.0529 ± 0.23

Sequence | self-splicing fitness (ln) (30 °C) | self-splicing fitness (ln) (37 °C)
UCUAAGCAAUAUUACGGGAG | -3.79 ± 0.16 | -2.5 ± 0.14
GCGAAGCAAUAUUACGAUUA | -1.52 ± 0.3 | -0.0699 ± 0.23
UACCAGCAAUAUUACGACAG | -1.2 ± 0.056 | -0.278 ± 0.076
GUUUAGCAAUAUUACGUCGG | -2.06 ± 0.18 | -2.12 ± 0.21
CAUAAGCAAUAUUACGCCCA | -2.14 ± 0.21 | -1.35 ± 0.29
CACUAGCAAUAUUACGCAGG | -3.27 ± 0.12 | -1.26 ± 0.15
AAAUAGCAAUAUUACGCAGG | -1.68 ± 0.12 | -1.65 ± 0.11
CCCCAGCAAUAUUACGCGGC | -2.98 ± 0.16 | -3.16 ± 0.4
AUCAAGCAAUAUUACGUACC | -0.82 ± 0.12 | -0.953 ± 0.17
AGGCAGCAAUAUUACGAUAA | -1.82 ± 0.11 | -2.3 ± 0.16
CACGAGCAAUAUUACGUAGG | – | -1.83 ± 0.21
CGGAAGCAAUAUUACGCGUU | -3.9 ± 0.34 | -2.9 ± 0.33
CUGCAGCAAUAUUACGCCGA | – | -2.61 ± 0.36
ACGGAGCAAUAUUACGGAAC | -3.05 ± 0.27 | -3.62 ± 0.47
AAAGAGCAAUAUUACGCGGG | -4.16 ± 0.28 | -3.54 ± 0.33
AGGAAGCAAUAUUACGUACA | -1.08 ± 0.065 | -0.404 ± 0.088
CGUAAGCAAUAUUACGUUUU | -4.1 ± 0.18 | -3.05 ± 0.19
CUCCAGCAAUAUUACGGCAC | -3.68 ± 0.23 | -3.27 ± 0.47
CCAAAGCAAUAUUACGCUGU | -3.89 ± 0.14 | -2.69 ± 0.15
GUGUAGCAAUAUUACGUUAG | -2.45 ± 0.25 | -1.56 ± 0.22
CGAAAGCAAUAUUACGAAUC | -2.03 ± 0.45 | -1.87 ± 0.26
CGUAAGCAAUAUUACGUUUC | -3.97 ± 0.24 | -1.92 ± 0.2
GGGGAGCAAUAUUACGACAA | -1.55 ± 0.42 | –
UUCCAGCAAUAUUACGCAGU | -3.23 ± 0.17 | -2.79 ± 0.28
GCACAGCAAUAUUACGAUGA | -0.231 ± 0.076 | -0.14 ± 0.078
